Three molecules from patent US6586216B2 (Purdue Research Foundation, priority 1997, dated 2003) can be followed below.

For data set [1], the target named is T1, wild type B. subtilis glutamine PRPP amidotransferase (Bacillus subtilis, UniProt P00497).
T1 construct: Enzymes of the B. subtilis class are synthesized with an NH2 terminal propeptide and an Fe—S center; made in house; host or cells: E. coli strain TX158 (purF) with plasmid pGZ1
T1 sequence (P00497 12-476): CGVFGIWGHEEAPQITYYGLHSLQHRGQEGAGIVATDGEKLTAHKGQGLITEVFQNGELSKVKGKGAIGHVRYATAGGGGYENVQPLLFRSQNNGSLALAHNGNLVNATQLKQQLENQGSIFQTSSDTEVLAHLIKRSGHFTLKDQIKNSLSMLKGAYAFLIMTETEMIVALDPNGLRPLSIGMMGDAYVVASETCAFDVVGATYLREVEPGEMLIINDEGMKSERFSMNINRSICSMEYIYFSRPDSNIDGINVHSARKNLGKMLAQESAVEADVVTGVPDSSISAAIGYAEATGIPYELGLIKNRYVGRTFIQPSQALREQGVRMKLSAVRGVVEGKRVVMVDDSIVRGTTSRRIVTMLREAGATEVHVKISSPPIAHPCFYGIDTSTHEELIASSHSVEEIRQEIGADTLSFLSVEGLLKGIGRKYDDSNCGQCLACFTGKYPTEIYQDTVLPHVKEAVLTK
Briefly: Inhibition of enzyme activity by nucleotides (glutamate formation assay), wild type. Format: biochemical. As to conditions: read-out: Km PRPP; wild type enzyme; data not shown. The method, then:
Enzyme activity was assayed by measuring the initial rate of formation of the product glutamate. […] Incubation was at 37° C. for 6 min. […] Reactions were quenched in a boiling water bath for 2 min, and glutamate was determined by the glutamate dehydrogenase method.
Inhibition by nucleotides was determined by the standard assay to which varied concentrations of nucleotide were added. Synergistic inhibition was determined by varying the concentration of one nucleotide in the presence of a fixed concentration of a second nucleotide. Relative activity (see FIG. 1) refers to the enzyme activity at a given concentration of the varied nucleotide relative to that in the absence of the varied nucleotide. I0.5 values were calculated from plots of relative activity versus varied nucleotide concentration.

Data set [2] relates to O=P(O)(O)OC[C@H]1OC(OP(=O)(O)OP(=O)(O)O)[C@H](O)[C@@H]1O. Briefly: purified protein, by the assay type. The following applies: other: S347A enzyme; data not shown; pH 8.0; 37.0 °C.
Data set [3] is described as follows: Specific activity of purified enzyme. The following applies: typical value. Format: biochemical, Bacillus subtilis. The method, then: For enzyme purification, all buffers were sparged with nitrogen gas prior to use in order to minimize oxidation of the enzyme's Fe-S cluster. All steps were carried out at 4° C. Cells were resuspended in 4 mL/gram of buffer A [50 mM Tris-HCl (pH 8.0), 10 mM MgCl2, 0.1 mM EDTA, 5 mM DTT, and 2 mM AMP] containing 1 mM PMSF, and were disrupted by two passes through a French Press. The cell extract was obtained by centrifugation for 1 h at 27,000 g. Protamine sulfate (5 mg per gram of cells) was added to the extract to precipitate DNA. After centrifugation at 27,000 g for 30 min, the supernatant was applied to a 1.9×20 cm column of DEAE-Sepharose equilibrated with buffer A. The column was washed with 300 mL of buffer A and 300 mL of buffer A plus 0.1 M KCl and eluted with a linear salt gradient of 600 mL from 0.1 to 1.0 M KCl in buffer A. Brown-colored fractions containing the enzyme were precipitated by addition of ammonium sulfate to 40% saturation. After centrifugation, enzyme in the brown pellet was recovered by extraction twice with 30% saturated ammonium sulfate. […]
Enzyme activity was assayed by measuring the initial rate of formation of the product glutamate. […] Reactions were quenched in a boiling water bath for 2 min, and glutamate was determined by the glutamate dehydrogenase method. […]

As usually defined, the Km is the substrate concentration at which the rate is half of its maximum.

As for `O=P(O)(O)OC[C@H]1OC(OP(=O)(O)OP(=O)(O)O)[C@H](O)[C@@H]1O` (stereo partly drawn) [PRPP, phosphoribosylpyrophosphate], the Km in data set [1] was 75 to 81 µM.
On to “glutamine PRPP amidotransferase S347A mutant enzyme (Bacillus subtilis subsp. subtilis str. 168; S358A)”, for which the Km in data set [2] is 182 µM.

B1: wild type: wild type B. subtilis glutamine PRPP amidotransferase produced from plasmid pGZ1 (protein, UniProt P00497 12-476, looked up)
Amidophosphoribosyltransferase: T1 sequence (P00497 12-476)
Consider B1, for which, in data set [3], the Enzyme specific activity turned out to be 25 nmol/min/mg.
